Measurements: article doi:10.1101/780452, “Development of c-type lectin oriented surfaces for high avidity glycoconjugates: towards mimicking multivalent interactions on the cell surface” (bioRxiv, 2019)

Molecular target: T1, BSA-Man (glycoprotein bearing 12 glycosylated sites) (bovine (from the name BSA), UniProt P02769 25-607, 12 glycosylated sites (mannose glycans, up to 12 glycans displayed))
T1 construct: BSA (serum albumin) carrying mannose glycans; A neoglycoprotein; also called Man-BSA
Test: SPR; BSA-Man titrated over a DC-SIGN S-ECD oriented surface (StrepTactin-functionalised CM3 chip, Biacore T200); 25 mM Tris pH 8, 150 mM NaCl, 4 mM CaCl2, 0.05% P20; steady state affinity model; apparent KD for the surface
Settings: both partners purified

T1 sequence (P02769 25-607): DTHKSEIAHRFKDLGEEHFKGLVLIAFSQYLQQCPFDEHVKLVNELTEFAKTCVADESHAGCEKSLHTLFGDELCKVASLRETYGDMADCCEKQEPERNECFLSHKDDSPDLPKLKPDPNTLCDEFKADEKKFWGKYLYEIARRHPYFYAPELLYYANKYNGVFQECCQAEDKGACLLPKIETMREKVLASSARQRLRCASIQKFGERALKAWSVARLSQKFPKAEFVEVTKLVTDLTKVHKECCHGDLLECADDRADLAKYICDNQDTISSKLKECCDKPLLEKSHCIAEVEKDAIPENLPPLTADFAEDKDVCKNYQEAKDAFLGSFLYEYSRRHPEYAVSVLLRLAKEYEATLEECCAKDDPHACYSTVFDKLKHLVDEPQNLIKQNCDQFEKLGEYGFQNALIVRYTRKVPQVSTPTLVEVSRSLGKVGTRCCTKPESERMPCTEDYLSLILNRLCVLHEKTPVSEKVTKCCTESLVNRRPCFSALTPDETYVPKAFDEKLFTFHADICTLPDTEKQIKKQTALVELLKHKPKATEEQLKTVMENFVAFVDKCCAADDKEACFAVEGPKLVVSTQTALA

- Kd: 5 nM
B1: DC-SIGN S-ECD (DC-SIGN extracellular domain tagged at its N-terminus with a StreptagII) (domain or fragment, UniProt Q9NNX6 66-404, looked up)
chain: SISQEQSRQDAIYQNLTQLKAAVGELSEKSKLQEIYQELTQLKAAVGELPEKSKLQEIYQELTRLKAAVGELPEKSKLQEIYQELTWLKAAVGELPEKSKMQEIYQELTRLKAAVGELPEKSKQQEIYQELTRLKAAVGELPEKSKQQEIYQELTRLKAAVGELPEKSKQQEIYQELTQLKAAVERLCHPCPWEWTFFQGNCYFMSNSQRNWHDSITACKEVGAQLVVIKSAEEQNFLQLQSSRSNRFTWMGLSDLNQEGTWQWVDGSPLLPSFKQYWNRGEPNNVGEEDCAEFSGNGWNDDKCNLAKFWICKKSAASCSRDEEQFLSPAPATPNPPPA
notes: DC-SIGN (Dendritic Cell specific ICAM-3 Grabbing Non-integrin), extracellular domain, amino acids 66-404; A factor Xa cleavage site lies between the N-terminal StreptagII and the ECD; On the chip the protein was captured by StrepTactin and then covalently fixed with EDC/NHS; source: E. coli Rosetta (DE3), inclusion bodies, purified (StrepTactin column, Mannan-agarose, Superose-12); not shown: …
